In patent publication US20130108641A1:

Experiments:
[1] = target: human GITR expressed on cells (human) (UniProt Q9Y5U5); experiment: FACS, Alexa488-labeled antibody on PHA-stimulated human PBMCs
[2] = target: human GITR expressed on cells (human) (UniProt Q9Y5U5); experiment: cell-based or functional assay
[3] = target: human GITR-Fc fusion protein (human) (UniProt Q9Y5U5); experiment: competition ELISA, GITRL coated, GITR-Fc 0.25 µg/mL pre-incubated with antibody
Chain of human GITR-Fc fusion protein (human) (Q9Y5U5 26-162): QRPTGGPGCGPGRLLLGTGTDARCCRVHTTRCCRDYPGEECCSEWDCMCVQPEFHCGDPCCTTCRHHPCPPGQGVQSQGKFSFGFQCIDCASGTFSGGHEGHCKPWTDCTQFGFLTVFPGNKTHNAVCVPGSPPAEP

Chain of human GITR expressed on cells (human) (Q9Y5U5 26-241): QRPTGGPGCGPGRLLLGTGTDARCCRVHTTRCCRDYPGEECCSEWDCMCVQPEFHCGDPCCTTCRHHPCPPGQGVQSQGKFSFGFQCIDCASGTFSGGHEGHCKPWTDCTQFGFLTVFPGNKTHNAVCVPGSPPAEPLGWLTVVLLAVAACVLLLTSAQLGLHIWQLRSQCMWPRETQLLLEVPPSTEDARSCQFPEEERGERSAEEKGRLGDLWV

## MAB689 (R&D Systems), commercial anti-GITR antibody
[1]
  Kd: 1.66 nM
[2]
  inhibition of NFkB signal transduction (luciferase reporter) at 300 ng/ml: 18%
[3]
  IC50: 13.9 nM
